In article PMC8780415:

Key:
Assay in all cases: flow cytometry on cells
[1] = molecular target: Biotinylated Myr47 (myristoylated pre-S1 peptide); settings: HEK293T cells transiently transfected; GFP+ gate; 10,000 cells; triplicate assays; mean and standard error; Myr47 binding examined at 4 °C; parent: est. 13; read off a plot
[2] = molecular target: SR-B1-GFP fusion protein (scavenger receptor class B type 1) (UniProt Q8WTV0)
[3] = molecular target: NTCP-GFP fusion protein (sodium taurocholate cotransporting polypeptide) (UniProt Q14973)
UniProt Q14973, sequence (Q14973 whole entry, the tested form may be a part): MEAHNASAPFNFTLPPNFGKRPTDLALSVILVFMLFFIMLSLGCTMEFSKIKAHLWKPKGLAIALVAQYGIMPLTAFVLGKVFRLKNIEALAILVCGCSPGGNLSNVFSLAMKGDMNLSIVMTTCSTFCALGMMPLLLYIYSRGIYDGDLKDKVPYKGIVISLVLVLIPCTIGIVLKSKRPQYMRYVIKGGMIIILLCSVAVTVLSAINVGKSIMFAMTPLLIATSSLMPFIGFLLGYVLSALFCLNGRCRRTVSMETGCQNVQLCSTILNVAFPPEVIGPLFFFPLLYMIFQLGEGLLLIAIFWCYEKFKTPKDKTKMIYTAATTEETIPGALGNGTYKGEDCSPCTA

UniProt Q8WTV0, sequence (Q8WTV0 whole entry, the tested form may be a part): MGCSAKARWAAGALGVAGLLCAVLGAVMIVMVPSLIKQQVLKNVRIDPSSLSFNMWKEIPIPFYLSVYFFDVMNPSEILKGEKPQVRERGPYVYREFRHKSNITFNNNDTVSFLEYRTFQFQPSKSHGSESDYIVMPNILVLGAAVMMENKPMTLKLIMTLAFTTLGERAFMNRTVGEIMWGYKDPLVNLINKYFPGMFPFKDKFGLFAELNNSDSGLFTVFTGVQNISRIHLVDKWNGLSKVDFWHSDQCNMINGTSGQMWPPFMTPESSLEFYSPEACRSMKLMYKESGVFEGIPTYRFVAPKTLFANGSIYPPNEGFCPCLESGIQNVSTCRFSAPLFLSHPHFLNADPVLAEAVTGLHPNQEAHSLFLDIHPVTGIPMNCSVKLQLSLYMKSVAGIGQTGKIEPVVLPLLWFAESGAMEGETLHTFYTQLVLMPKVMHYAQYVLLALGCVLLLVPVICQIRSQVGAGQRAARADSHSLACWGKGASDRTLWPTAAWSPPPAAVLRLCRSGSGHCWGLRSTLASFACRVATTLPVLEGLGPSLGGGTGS

Row | Substance | response [1] | fold binding over GFP control cells [2] | fold binding over GFP control cells [3]
1 | SR-B1-GFP fusion protein (scavenger receptor class B type 1) (from UniProt Q8WTV0) T175A | 5.7 FI × 10^3 | – | –
2 | Yeast-derived nanoparticles containing L protein (bio-nanocapsules, BNCs) | – | 9.2 fold | –
3 | SR-B1-GFP fusion protein (scavenger receptor class B type 1) (from UniProt Q8WTV0) K151A | 10 FI × 10^3 | – | –
4 | SR-B1-GFP fusion protein (scavenger receptor class B type 1) (from UniProt Q8WTV0) M441A; L448A; L455A | 10 FI × 10^3 | – | –
5 | SR-B1-GFP fusion protein (scavenger receptor class B type 1) (from UniProt Q8WTV0) K156A | 5.8 FI × 10^3 | – | –
6 | SR-B1-GFP fusion protein (scavenger receptor class B type 1) (from UniProt Q8WTV0) S112F | 5.3 FI × 10^3 | – | –
7 | Biotinylated Myr47 (myristoylated pre-S1 peptide) | – | 2.8 fold | 3.4 fold
